We go through twelve molecules from article PMC7782513, “Structural basis for nuclear import selectivity of pioneer transcription factor SOX2” (Nature Communications, 2021).

T1: IMPα3 lacking the IMPβ-binding domain (residues 64-521) (human, UniProt O00629 64-521)
T1 sequence (looked up): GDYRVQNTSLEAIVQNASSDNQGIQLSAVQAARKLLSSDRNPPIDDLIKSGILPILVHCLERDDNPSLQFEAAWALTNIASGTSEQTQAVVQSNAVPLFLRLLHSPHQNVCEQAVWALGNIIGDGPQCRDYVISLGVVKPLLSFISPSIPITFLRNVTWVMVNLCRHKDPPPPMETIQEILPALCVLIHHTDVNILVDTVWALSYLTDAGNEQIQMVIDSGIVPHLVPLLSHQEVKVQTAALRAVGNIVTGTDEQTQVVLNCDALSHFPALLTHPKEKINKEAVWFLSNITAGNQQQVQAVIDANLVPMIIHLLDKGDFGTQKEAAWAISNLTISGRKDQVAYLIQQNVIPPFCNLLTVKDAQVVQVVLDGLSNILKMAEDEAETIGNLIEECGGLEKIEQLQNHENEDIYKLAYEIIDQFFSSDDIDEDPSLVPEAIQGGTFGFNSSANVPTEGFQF

B1: His-tagged SOX2 R43A (domain or fragment)
chain: not shown
notes: SOX2 HMG domain, human, residues 39-127 of UniProtKB P48431, with R43A; also called R43A-SOX2; source: E. coli, recombinant, purified; not shown: His6, N-terminal, kept
B2: His-tagged SOX2 R98A (domain or fragment)
chain: not shown
notes: SOX2 HMG domain, human, residues 39-127 of UniProtKB P48431, with R98A; source: E. coli, recombinant, purified; not shown: His6, N-terminal, kept
B3: His-tagged SOX2 R113A (domain or fragment)
chain: not shown
notes: SOX2 HMG domain, human, residues 39-127 of UniProtKB P48431, with R113A; source: E. coli, recombinant, purified; not shown: His6, N-terminal, kept
B4: His-tagged SOX2 K42A (domain or fragment)
chain: not shown
notes: SOX2 HMG domain, human, residues 39-127 of UniProtKB P48431, with K42A; source: E. coli, recombinant, purified; not shown: His6, N-terminal, kept
B5: His-tagged SOX2 K115A (domain or fragment)
chain: not shown
notes: SOX2 HMG domain, human, residues 39-127 of UniProtKB P48431, with K115A; source: E. coli, recombinant, purified; not shown: His6, N-terminal, kept
B6: His-tagged SOX2 R57A (domain or fragment)
chain: not shown
notes: SOX2 HMG domain, human, residues 39-127 of UniProtKB P48431, with R57A; source: E. coli, recombinant, purified; not shown: His6, N-terminal, kept
B7: His-tagged SOX2 R56A (domain or fragment)
chain: not shown
notes: SOX2 HMG domain, human, residues 39-127 of UniProtKB P48431, with R56A; source: E. coli, recombinant, purified; not shown: His6, N-terminal, kept
B8: His-tagged SOX2 R114A (domain or fragment)
chain: not shown
notes: SOX2 HMG domain, human, residues 39-127 of UniProtKB P48431, with R114A; source: E. coli, recombinant, purified; not shown: His6, N-terminal, kept
B9: His-tagged SOX2 R40A (domain or fragment)
chain: not shown
notes: SOX2 HMG domain, human, residues 39-127 of UniProtKB P48431, with R40A; source: E. coli, recombinant, purified; not shown: His6, N-terminal, kept
B10: His-tagged SOX2 K117A (domain or fragment)
chain: not shown
notes: SOX2 HMG domain, human, residues 39-127 of UniProtKB P48431, with K117A; source: E. coli, recombinant, purified; not shown: His6, N-terminal, kept
B11: His-tagged SOX2 T116E (to mimic phosphorylation) (domain or fragment)
chain: not shown
notes: SOX2 HMG domain, human, residues 39-127 of UniProtKB P48431, with T116E; source: E. coli, recombinant, purified; not shown: His6, N-terminal, kept
B12: His-tagged SOX2 HMG domain (residues 39-127), wild type (domain or fragment)
chain: not shown
notes: SOX2 HMG domain, human, residues 39-127 of UniProtKB P48431; pET30a+ construct with a TEV site (ENLYFQS) between tag and SOX2; in MST the labelled SOX2 carries the RED-tris-NTA dye of the his-tag labelling kit; also called SOX2 WT; source: E. coli BL21 (DE3) pLysS, purified (HisTrap, SEC); not shown: His6, N-terminal, kept

One experiment addresses T1, IMPα3 lacking the IMPβ-binding domain …. The experiment can be described thus: pull-down; 10 µM His-tagged SOX2 or mutant immobilised on Ni-NTA resin, 20 µM IMPα in 300 µL; washed three times with 50 mM phosphate pH 8.0, 300 mM NaCl, 20 mM imidazole; eluted through TEV cleavage; SDS-PAGE. Particulars: both partners purified.
B1: the binding result is given as “binds”.
The same measure, in the same setting: with B2 the entry was “binds”; with B3, “binds”.
On the same count and under the same terms, for B4 the value was “binds”; for B5, “binds”.
For B6, the binding result is recorded as “binds”.
Same read-out and setting: with B7 the entry was “binds”; with B8, “binds”; with B9, “binds”.
The same measure, in the same setting: for B10 the value was “binds”.
For B11, the binding result was “binds”.

In another experiment the target is IMPα1 lacking the IMPβ-binding domain (residues 70-529) (human, UniProt P52292 70-529). The experiment is described as follows: MST; labelled SOX2 at 50 nM (his-tag labelling kit RED-tris-NTA), unlabelled importins titrated; 20 mM HEPES, 150 mM NaCl, pH 8.0; 25 °C; single binding model. To be noted: both partners purified.
What is called Kd is the equilibrium constant for the complex coming apart. Lower therefore signals tighter binding. With B12, the Kd is 447 nM.

For another experiment, the target named is IMPα5 lacking the IMPβ-binding domain (residues 73-538) (human, UniProt P52294 73-538). The description is as above. To be noted: both partners purified.
IMPα5 lacking the IMPβ-binding domain (residues 73-538), sequence (P52294 73-538): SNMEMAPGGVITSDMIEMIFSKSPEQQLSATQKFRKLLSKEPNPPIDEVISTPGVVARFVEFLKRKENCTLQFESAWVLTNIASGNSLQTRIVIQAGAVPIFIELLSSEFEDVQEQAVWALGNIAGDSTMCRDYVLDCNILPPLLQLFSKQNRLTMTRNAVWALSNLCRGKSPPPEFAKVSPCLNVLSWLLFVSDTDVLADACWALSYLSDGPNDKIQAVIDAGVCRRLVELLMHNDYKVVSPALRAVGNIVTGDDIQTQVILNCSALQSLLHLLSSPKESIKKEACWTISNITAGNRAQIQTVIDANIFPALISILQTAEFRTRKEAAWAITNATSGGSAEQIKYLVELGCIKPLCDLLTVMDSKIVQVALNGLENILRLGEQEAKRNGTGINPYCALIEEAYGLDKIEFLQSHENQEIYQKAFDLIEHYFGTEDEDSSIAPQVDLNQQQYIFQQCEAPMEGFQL
With B12, binding was characterised by a dissociation constant (Kd) of 247 nM. In other words, the sub-micromolar range.

The next experiment has as its target IMPα2 lacking the IMPβ-binding domain (residues 70-529) (UniProt P52293 70-529). Described as above. To be noted: both partners purified.
As for B12, the affinity, expressed as Kd, was 283 nM.

A further experiment addresses T1, IMPα3 lacking the IMPβ-binding domain …. Described as above. To be noted: both partners purified.
Consider B12, for which the Kd amounted to 102 nM.
